In patent US9012420B2, “Aptamer for chymase, and use thereof” (Ribomic Inc., priority 2009, dated 2015):

Key:
[1] = target: T1, chymase (Homo sapiens, UniProt P23946 P23946:22-247); assay: inhibition; angiotensin I; recombinant 0.397; settings: tags: human skin mast cell, Calbiochem
T1 sequence: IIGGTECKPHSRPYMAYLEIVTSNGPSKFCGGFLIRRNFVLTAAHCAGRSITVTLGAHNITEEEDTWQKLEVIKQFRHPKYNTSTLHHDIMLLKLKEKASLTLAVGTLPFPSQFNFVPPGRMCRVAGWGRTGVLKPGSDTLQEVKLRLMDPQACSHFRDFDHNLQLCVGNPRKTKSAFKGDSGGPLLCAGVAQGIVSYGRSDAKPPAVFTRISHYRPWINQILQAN
Experimental: (§1) The total volume of solution for an enzyme reaction in the assay was set to 50 μL, and the reaction was performed in solution C buffer. First, 0.3-0.75 ng of chymase (recombinant, (manufactured by SIGMA) or native (manufactured by Calbiochem)) was diluted with solution C to give 5 μL thereof. Here, the recombinant is chymase expressed by yeast, and the native is chymase purified from human skin mast cell. The nucleic acid was serially diluted with solution C at a concentration of 0.0027-2 μM to give 25 μL thereof. The chymase solution (5 μL) and the nucleic acid solution (25 μL) were mixed, and the mixture was incubated at 37° C. for 5 min. […] The whole mixture was centrifuged at 4° C., 14000 rpm for 10 min, and the supernatant (30 μL) was used for the next fluorescence induction reaction.
(§2) The above-mentioned supernatant (30 μL) was added to a 96 well plate (black, manufactured by Costar), a solution (15 μL) of 2% o-phthalaldehyde (manufactured by SIGMA) in methanol and 0.3M NaOH solution (170 μL) were added to each well, and the mixture was incubated at room temperature for 10 min. […] The plate was set on a microplate reader SpectraMax190 (manufactured by Molecular device) and the fluorescence intensity was measured at an excitation wavelength of 355 nm and a fluorescence wavelength of 460 nm.

[2] = target: T1, chymase; assay: inhibition; angiotensin I; recombinant 0.456; settings: tags: human skin mast cell, Calbiochem
Experimental: as §1, §2

[3] = target: T2, chymase (recombinant) (UniProt P23946 P23946:22-247); assay: inhibition; SPR not determined; settings: tags: SIGMA, expressed in yeast
T2 sequence: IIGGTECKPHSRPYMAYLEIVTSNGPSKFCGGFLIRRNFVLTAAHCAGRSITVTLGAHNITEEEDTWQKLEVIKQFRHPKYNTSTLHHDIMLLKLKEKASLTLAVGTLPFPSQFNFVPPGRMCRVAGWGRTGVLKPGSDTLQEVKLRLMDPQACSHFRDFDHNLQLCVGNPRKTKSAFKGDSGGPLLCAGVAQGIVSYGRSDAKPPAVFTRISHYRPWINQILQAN
Experimental: (§3) Here, Suc is a protecting succinyl group, and MCA is a 4-methylcoumaryl-7-amide group; upon cleavage of the C-terminal side of phenylalanine, AMC (7-amino-4-methyl-coumarine) is released. By detecting the fluorescence of this AMC, the enzyme activity of chymase can be determined. The assay was performed using a 96-well plate (F16 Black Maxisorp Fluoronunc, manufactured by Nunc), with a reaction mixture volume of 100 μL, in solution C as a buffer solution. First, each nucleic acid was serially diluted to 0.0027-2 μM concentrations in solution C to obtain 50 μL solutions. After 10 μL of the 1 mM substrate prepared in solution C was added thereto, the plate was set to the microplate reader SpectraMax190 (manufactured by Molecular Devices Corporation), and incubated at 37° C. for 5 minutes. Separately, 0.05 μg (or 0.005 μg) of chymase (recombinant, manufactured by SIGMA) was diluted in solution C to obtain a 40 μL chymase solution, and incubated at 37° C. for 5 minutes. […] The plate containing the reaction mixture was set to the microplate reader SpectraMax190 (manufactured by Molecular Devices Corporation), and examined for time-dependent changes in the fluorescence intensity at 37° C. for 5 minutes (or 30 minutes) (excitation wavelength 380 nm, detection wavelength 460 nm). A linear approximation of the increase in the fluorescence of the AMC released from the substrate by chymase activity was generated, and its slope was taken as the initial velocity ($Vmax$). For control, samples were treated and analyzed in the same manner in two cases: use of a 30N or 40N (a nucleotide of 30 or 40 consecutive bases represented by N; N is A, G, C or T) nucleic acid pool (negative control), and use of chymostatin, a known chymotrypsin-like serine protease inhibitor (positive control). Taking the initial reaction velocity without the nucleic acid and inhibitor (V_0) as a 100% enzyme activity, the inhibitory rate of each test substance was calculated using the following equation: […]
The chymase inhibitory activity was measured in the same manner as in Example 3.

[4] = target: T1, chymase; assay: inhibition; angiotensin I; recombinant 0.055; settings: tags: human skin mast cell, Calbiochem
Experimental: as §1, §2

[5] = target: T1, chymase; assay: inhibition; angiotensin I; recombinant 0.446; settings: tags: human skin mast cell, Calbiochem
Experimental: as §1, §2

[6] = target: T2, chymase (recombinant); assay: inhibition; SPR ++; 0.027 uM in Table 6; settings: tags: SIGMA, expressed in yeast; stem-loop (MFOLD)
Experimental: as §3, with “minutes.” for “minutes. Separately, 0.05 μg (or 0.005 μg) of chymase (recombinant, manufactured by SIGMA) was diluted in solution C to obtain a 40 μL chymase solution, and incubated at 37° C. for 5 minutes.”, “($Vmax$).” for “($Vmax$). For control, samples were treated and analyzed in the same manner in two cases: use of a 30N or 40N (a nucleotide of 30 or 40 consecutive bases represented by N; N is A, G, C or T) nucleic acid pool (negative control), and use of chymostatin, a known chymotrypsin-like serine protease inhibitor (positive control). Taking the initial reaction velocity without the nucleic acid and inhibitor (V_0) as a 100% enzyme activity, the inhibitory rate of each test substance was calculated using the following equation:”
Chymase inhibitory activity was determined in the same manner as Example 3.

[7] = target: T3, chymase (native, human skin mast cell) (Homo sapiens, UniProt P23946 P23946:22-247); assay: inhibition; angiotensin I substrate; recombinant 0.235 uM; settings: tags: Calbiochem, stem-loop (MFOLD)
T3 sequence: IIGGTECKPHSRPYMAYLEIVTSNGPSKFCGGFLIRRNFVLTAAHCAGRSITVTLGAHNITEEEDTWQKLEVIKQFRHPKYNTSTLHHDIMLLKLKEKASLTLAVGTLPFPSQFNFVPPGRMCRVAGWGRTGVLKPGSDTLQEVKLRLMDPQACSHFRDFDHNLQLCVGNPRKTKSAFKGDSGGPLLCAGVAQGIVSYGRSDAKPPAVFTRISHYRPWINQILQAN
Experimental: as §1, §2

[8] = target: T1, chymase; assay: inhibition; angiotensin I; recombinant 0.354; settings: tags: human skin mast cell, Calbiochem
Experimental: as §1, §2

[9] = target: T2, chymase (recombinant); assay: inhibition; SPR not determined; settings: tags: SIGMA, expressed in yeast; remark: listed apart in the source
Experimental: as §3, with “minutes.” for “minutes. Separately, 0.05 μg (or 0.005 μg) of chymase (recombinant, manufactured by SIGMA) was diluted in solution C to obtain a 40 μL chymase solution, and incubated at 37° C. for 5 minutes.”, “($Vmax$).” for “($Vmax$). For control, samples were treated and analyzed in the same manner in two cases: use of a 30N or 40N (a nucleotide of 30 or 40 consecutive bases represented by N; N is A, G, C or T) nucleic acid pool (negative control), and use of chymostatin, a known chymotrypsin-like serine protease inhibitor (positive control). Taking the initial reaction velocity without the nucleic acid and inhibitor (V_0) as a 100% enzyme activity, the inhibitory rate of each test substance was calculated using the following equation:”
The inhibitory activity on chymase was measured in the same manner as in Example 3.

UAACUAUGGUUAGAUAGAGUUAAAAACCAUAGAAGA (ssRNA, 2'-F U and C) [SEQ 54]
IC50 [1]: 614 nM

GGGUUAGAUAGAGUUAAAAACCC (ssRNA, 2'-F U and C; 5' PEG 40 kDa; 3' idT)
IC50 [2]: 613 nM

B1: 72(8) (mixed)
mixed: GGGTTAGAUAGAGTUAAAAACCC
modifications: B-idT-G(M)G(M)G(M)ttAG(M)aU(F)A(M)GAG(M)tU(F)A(M)A(M)A(M)A(M)A(M)ccc-idT (lower case DNA, B=biotin)
IC50 ([3]; label: biotin): 18 nM

GGGUUAGAUAGAGUUAAAAACCC (ssRNA, 2'-F U and C; PS 6-7) [56(19)]
IC50 [4]: 130 nM

B2: SEQ 69 (ssRNA)
RNA: AAAGGGUUAGAUAGAGUUAAAAACCC
modifications: PEG-A(M)A(M)A(M)G(M)G(M)G(M)U(F)U(F)AG(M)A(M)U(F)A(M)GAG(M)U(F)U(F)A(M)A(M)A(M)A(M)A(M)C(F)C(F)C(F)-idT (M=2'-OMe, F=2'-F)
IC50 [3]: 91 nM

GGGUAACUAUGGUUAGAUAGAGUUAAAAACCAUAGAAGACCC (ssRNA, 2'-F U and C) [SEQ 53]
IC50 [5]: 764 nM

GGGUUAGAUAGAGUUAAAAACCC (ssRNA, 2'-F pyrimidines) [SEQ 56]
IC50 [6]: 46 nM
IC50 [7]: 508 nM

B3: 56(27) (ssRNA)
RNA: GGGUUAGAUAGAGUUAAAAACCC
modifications: PEG-G(M)G(M)G(M)U(F)U(F)AG(M)A(M)U(F)A(M)GAG(M)U(F)U(F)A(M)A(M)A(M)A(M)A(M)C(F)C(F)C(F)-idT (M=2'-OMe, F=2'-F)
IC50 [3]: 84 nM

CUAUGGUUAGAUAGAGUUAAAAACCAUAG (ssRNA, 2'-F U and C) [SEQ 55]
IC50 [8]: 606 nM

GGGUUAGAUAGAGUUAAAAACCC (ssRNA, 2'-F pyrimidines; 5' 40 kDa branched PEG; 3' idT)
IC50 [9]: 58 nM
